Entries after “also recorded” stand apart in the source; their conditions may differ. No end group written: not given here.
Experiments:
[1] = system: MR S810 mutated to leucine or methionine; conditions: Geller et al., 2000; cited from earlier work
[2] = molecular target: T1, purified MR LBD/corticosterone complex (Homo sapiens, UniProt P08235, C808S); experiment: AlphaScreen binding of biotinylated coactivator/corepressor peptides (FIG. 1B); conditions: corticosterone-bound MR LBD
T1 construct: made in house; host or cells: E. coli BL21DE3 (pET24a)
T1 sequence (P08235 727-984 C808S): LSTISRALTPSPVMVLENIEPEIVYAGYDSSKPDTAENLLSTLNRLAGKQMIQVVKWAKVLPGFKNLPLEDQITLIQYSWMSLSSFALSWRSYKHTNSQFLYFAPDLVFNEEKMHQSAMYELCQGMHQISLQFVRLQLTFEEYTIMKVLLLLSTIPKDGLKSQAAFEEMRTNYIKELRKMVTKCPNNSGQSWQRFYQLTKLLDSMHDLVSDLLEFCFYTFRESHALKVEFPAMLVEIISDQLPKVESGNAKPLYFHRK
Procedure: (B) Binding of various peptides containing coactivator or corepressor motifs to the purified MR LBD/corticosterone complex as measured by AlphaScreen assays. The background reading with the MR LBD alone is less than 200.
(§1) The binding of various peptide motifs to MR was determined by AlphaScreen assays using a hexahistidine detection kit from Perkin-Elmer. MR proteins were prepared as 6×His-GST fusion proteins for the assays.
The biotinylated peptides that were used in FIG. 1B are listed below in Table 1: […]

MR = molecular target: T2, MR (Homo sapiens, UniProt P08235); experiment: IC50 (µM)
T2 construct: receptor expression vector (pRS vector) encoding full-length GR and MR respectively (ATCC); host or cells: Cos-7
Source text: Table printed on a drawing sheet, FIG. 3D
Head of the field: IC50 (µM)
The patent's description of the figure: FIG. 3.
First copying reader's note: The head of the sequence column numbers the residue positions relative to the first leucine of the LXXLL motif; the last two rows are protein fragments given as residue ranges.

MR LBD = molecular target: T3, MR LBD (Homo sapiens, UniProt P08235, C808S); experiment: Peptide profiling: unlabeled peptides compete off SRC2-3 binding to MR (FIG. 1C); conditions: unlabeled peptide 500 nM; 20 nM corticosterone or aldosterone
T3 construct: made in house; host or cells: E. coli BL21DE3 (pET24a)
T3 sequence (P08235 727-984 C808S): T1 sequence (P08235 727-984 C808S)
Procedure: The cofactors that contain a pair of LXXLL motifs with strong binding affinity to MR are boxed. All peptides have identical length of 15 residues except for SRC1-4 motif, which terminates at position +7 relative to the first leucines (L+1) in the LXXLL motif, and for the AR peptides and the corepressor motifs, which are longer than the coactivator motifs. Sequences of peptides are listed in experimental procedures.
as §1
The unlabeled peptides that were used in FIG. 1C are listed below in Table 2:
MR is the least studied member among the classical steroid hormone receptors and its physiological coactivators have not been clearly documented. To gain insights into which coactivator is physiologically relevant to MR, the inventors performed peptide profiling experiments using a panel of 38 unlabeled peptides to compete off the binding of the third LXXLL motif of SRC2 (also known as TIF2/GRIP1) to MR. […] The strong binding of the SRC1-4 motif and the PGC1 motifs is consistent with previous studies of the binding of LXXLL motifs to oxosteroid receptors (Hultman et al., 2005; Wu et al., 2004).

T2 sequence (P08235 whole entry, looked up): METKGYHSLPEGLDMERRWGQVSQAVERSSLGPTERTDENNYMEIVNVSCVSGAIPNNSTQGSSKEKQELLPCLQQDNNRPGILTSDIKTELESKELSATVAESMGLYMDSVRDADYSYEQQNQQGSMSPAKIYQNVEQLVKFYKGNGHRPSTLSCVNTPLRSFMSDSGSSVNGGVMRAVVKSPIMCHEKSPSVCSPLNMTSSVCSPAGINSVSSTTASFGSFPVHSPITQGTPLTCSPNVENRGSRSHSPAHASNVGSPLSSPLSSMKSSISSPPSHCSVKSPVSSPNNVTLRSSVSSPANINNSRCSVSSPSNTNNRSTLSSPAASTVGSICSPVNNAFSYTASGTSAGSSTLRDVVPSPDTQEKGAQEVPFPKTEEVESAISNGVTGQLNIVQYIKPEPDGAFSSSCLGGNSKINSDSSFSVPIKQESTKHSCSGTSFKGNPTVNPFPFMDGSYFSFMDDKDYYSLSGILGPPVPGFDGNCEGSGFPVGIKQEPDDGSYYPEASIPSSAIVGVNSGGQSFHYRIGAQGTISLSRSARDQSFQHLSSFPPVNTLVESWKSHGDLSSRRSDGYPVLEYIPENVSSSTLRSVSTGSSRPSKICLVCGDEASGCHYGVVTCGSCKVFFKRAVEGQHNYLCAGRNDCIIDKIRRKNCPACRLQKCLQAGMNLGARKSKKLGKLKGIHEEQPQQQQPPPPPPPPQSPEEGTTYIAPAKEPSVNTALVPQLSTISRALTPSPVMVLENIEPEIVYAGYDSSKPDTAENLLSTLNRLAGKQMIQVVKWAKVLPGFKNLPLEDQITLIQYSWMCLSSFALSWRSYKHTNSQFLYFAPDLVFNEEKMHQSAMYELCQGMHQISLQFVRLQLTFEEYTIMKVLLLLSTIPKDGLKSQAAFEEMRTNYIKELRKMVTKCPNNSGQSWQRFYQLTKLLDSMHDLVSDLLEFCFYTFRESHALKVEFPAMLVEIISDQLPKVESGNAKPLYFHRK

Molecule: C[C@]12CCC(=O)C=C1CC[C@@H]1[C@@H]2C(=O)C[C@@]2(C)[C@H]1CC[C@]2(O)C(=O)CO [cortisone]
- activation of S810-mutated MR [1]: activated efficiently

Molecule: CC(=O)[C@H]1CC[C@H]2[C@@H]3CCC4=CC(=O)CC[C@]4(C)[C@H]3CC[C@]12C [progesterone]
- activation of S810-mutated MR [1]: activated efficiently; also recorded: allows the receptor to respond

Molecule: AEEPSLLKKLLLAPA [PGC1]
- interaction with purified MR LBD [2]: strongly

Molecule: GHGEDFSKVSQNPILTSLLQITGN (listed as Homo sapiens) [TRAP220]
- interaction with purified MR LBD [2]: weakly

Molecule: GHSFADPASNLGLEDIIRKALMGSF [NCOR-2]
- interaction with purified MR LBD [2]: failed to interact

Molecule: KENNALLRYLLDRDD [SRC3-3]
- IC50 (MR): 1400 nM

Molecule: PRQGSILYSLLTSSK (listed as Homo sapiens) [DAX1-3, 18]
- inhibition of SRC2-3 binding to MR (MR LBD): most potent competitors

Molecule: QEKHRILHKLLQNGN [SRC3-2]
- IC50 (MR): 4600 nM

Molecule: SGNLVPDAASKHKQLSELLRGGSG (listed as Homo sapiens) [CBP]
- interaction with purified MR LBD [2]: weakly

Molecule: WAEFSILRELLAQDV (listed as Homo sapiens) [PGC1β-2, 35]
- inhibition of SRC2-3 binding to MR (MR LBD): most potent competitors
